According to the RNAGym collection of RNA variant scans (doi:10.1073/pnas.2313332121):

B1: TPR t1 (parent)
chain: GACCAAUCUGCCCUCAGAGCUCGAGAACAUCUUCGGAUGCAGAGGAGGCAGGCUUCGGUGGCGCGAUAGCGCCAACGUCCUCAACCUCCAAUGCAUCCCACCACAUGAUGAUGCCUGAAGAGCCUUGGUUUUUUG

Variants of: B1
Test: polymerase ribozyme fitness, log enrichment relative to wild type (log ratio); higher = more active; in vitro selection for triplet polymerase activity
Method in brief: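 One round of in vitro selection, in triplicate, was applied to PCR-built, transcribed mutant libraries of each subunit of a heterodimeric triplet polymerase ribozyme. The steps were annealing with a biotinylated primer, partner subunit and triplets, incubation frozen at −7 °C, gel excision of extended constructs, streptavidin-bead capture and RT-PCR. Fitness is the logarithm, base 2, of genotype enrichment over wild-type enrichment from inverse-variance-weighted replicate averages of Illumina-sequenced inputs and outputs, keeping genotypes with ≥10 input reads and ≥1 read per output.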

Variant	polymerase ribozyme fitness (log ratio)
GACCAAUCUGCCCUCAGAGCUCGAGAACAUCUUCGGAUGCAGAGGAGACAGGCUUCGGUGGCGCGAUAGCGCAAACGUCCUCAACCUCCAAAGCAUCCCACCACAUGAUGAUGCUUGAAGAGCCUUGGUUUUUUG [G48A C73A U92A C115U]	-5.26
GACCAAUCUGCCCUCAGAGCUUGAGAACAUCUUCGGAUGCAGAGGAGGCAGGCUUCGGUAGCGCGAUAGCGCCAACGUCCUCAACCUCCAAUGCAUCCCACCACAUGAUGAUGCCUGAAGAGCCUUGGUUUUUUG [C22U G60A]	-3.85
GACCAAUCUGCCCUCAGAGCUCGAGAACAUCUUCGUAUGCAGAGGAGGCAGGCUUCGGUGGCUCGAUAGCGCCAACGUCUUCACCCUCCAAUGCAUCCCACCACAUGAUGAUGCCUGAAGAGCCUUGGUUUUUUG [G36U G63U C80U A84C]	-4.1
GACCAAUCUGCCCUCAGAGCUCGAGAACAUCUUCGGAUGCAGAGGAGGGAGGCUUCGGUUGCGCGAUAGCGCCAACGUCCUCAACCUCCAAUGCAUCCCACCACAUGAUAAUGCCUGAAGAGCCUUGGUUUUUUG [C49G G60U G110A]	-1.76
GACCAAUCUGCCCUCAGAGCUCGAGAACAUCUUCGGAUGCAGAGGAGGCAGGCUUCGGUGACGCGAUAGCGCCAACGUCCUCAACCUCCAAUGCAUUCCACCACAUGAUGAUGUCUGAAGAGCCUUGGUUUUUUG [G61A C97U C114U]	-2.43
GACCAAUCUGCCCUCAGAGCUCGAGAACAUCUUCGGAUGCAGAGAAGGCAGGCUUCGGUGGCGCGAUAGCGCCAACGUCCUCAACCUCCAAUGCAUCCCACCACAUGAUGAAGCCUGAAGAGCCUUGGUUUUUUG [G45A U112A]	1.41
GACCAAUGGGCGCUCAGAGCUCGAGAACAUCUUCGGAUGCAGAGGAGGGAGGCUUCGGUGGCGCGAUAGCGCCAACGUCCUCAACCUCCAAUGCAUCCCACCACAUGAUGAUGCCUGAAGAGCCUUGGUUUUUUG [C8G U9G C12G C49G]	-0.256
GACCAAUCUGUCCUUCGAGCUCGAGAACAUCUUCGGAUGCAAAGGAGGCAGGCUUCGGUGGCGCGAUAGCGCCAACGUCCUCAACCUCCAAUGCAUCCCACCACAUGAUGAUGCCUGAAGAGCCUUGGUUUUUUG [C11U C15U A16C G42A]	-2.92
GACCAAUCUGCCCUCAGAGCUCGAGAACAUCUUCGGAUGCAGAGGAGGCAGGCUUCGGUGGCGCGAUAGCGCCAACGUCCGCACCCUCCAAUGCAUCCCACCACAUGAUGAUACCUGAAGAGCCUUGGUUUUUUG [U81G A84C G113A]	-3.43
GACCCUUCUGCCCUCAGAGCUCGAGAACAUCCUCGGAUGCAGAGGAGGCAGGCUUCGGUGGCGCGAUACCGCCAACGUCCUCAACCUCCAAUGCAUCCCACCACAUGAUGAUGCCUGAAGAGCCUUGGUUUUUUG [A5C A6U U32C G69C]	-1.62
GACCAAUCUGCCCUCAGAGCUCGAGAACAUCUUCGGAUGCCGAGGAGGCAGGCUUCGGUGGCGCGAUAGCGCCAACGUCCUCAACCUCCCAUGCAUCCCACCACAUGAUGAUGCCUGAAGAGGCUUGCUUUUUUG [A41C A90C C123G G128C]	-2.07
GACCAAUCUGCCCUCAGAGCUCGAGAACAUCUUCGGAUGCAGAGGAGGCAGGCUUCGGUGGAGCGAUAGCGCCAACGUCCUCAACCUCCAAUGCAUCCCACCACAUGAGUAUGCCUGAAGAGCCUUGGUUUUUUG [C62A U109G G110U]	-4.7
GACCAAUCUGCUCUCAGAGCUCGAGAACAUCUUCGGAUGCAGCGGAGGCAGGCUUCGGUGGCGCGAUAGCGCCAACGUCCUCAACCUCCUAUGCAUCCCACCACAUGAUGAUGCCUGAAGAGCCUUGGUUUUUUG [C12U A43C A90U]	-0.274
GACCAAUCUGCCCUCAGAGCUCGAGAACAUCUUCGGAUGCAGAGGAGGUAGGCUUCGGAGGCGCGAUAGCGCCAACGCCCUCAGCCUCCAAUGCAUCCCACCACAUGAUGAUGCCUGAAGAGCCUUGGUUUUUUG [C49U U59A U78C A84G]	-1.51
GACCAAUCUGCCCUCAGUGCUCGAGAACAUCUUCGGAUGCAGAGGAGGCAGGCUUCGGUGGCGCGAUAGCGCCAACGGCCUCAACCUCCAAUGCAGCCCACCACAUGAUGAUGCCUGAAGAGCCUUGGUUUUUUG [A18U U78G U96G]	-4.41
GACCAAUGUGCCCUCAGAGCUCGAGAACAUCUUCGAAUGCAGAGGAGGCAGGCUUCGGUGGCGCGAUAGCGCCAACGUCCUCAACCUCCAAUGCAUCCCACCACAUGAUGAUGCCUGAAGCGCCUUGGUUGUUUG [C8G G36A A121C U131G]	1.28
GACCAAUAUGCCCUCAGAGCUCGAGAACAUCUUCGGAUGCAGAGGAGGCAGGCUUUGGUGGCGCGAUAGCGCCAACGUCCUCAACCUCCAAUGCAUCCCACCACAUGAUGAUGCCUGAAGAGCCUUGGUUUUUUG [C8A C56U]	0.138
GACCAAACCGCCCUCAGAGCUCGAGAACAUCUUCGGAUGCAGAGGAGGCAGGCUUCGGUGGCGCGAUAGCGCCAACGUCCUCAACCUCCAAUGCAUCCCACCACAUGAUGAUGCCUGAAGAGCCUUGGUUUUUUG [U7A U9C]	0.526
GACCAAUCUGCCCUCAGAGCUCGAGAACAUCUUCGGAUGCAGAGGAGGCAGCCUUCGGUGGCGCGAUAGCUCCAACGUCCUCAACCUCCAAUGCAUCCCACCACAUGAUGAUGCCUGAAGAGCCUUGGUUUAUUG [G52C G71U U132A]	-0.43
GACCAAUCUGCCCUCAGAGCUCGAGAACAUCUUCGGAUGCAGAGGACGUAGGCUUCGGUGGCGCGAUAGCGCCAACGUCCUCAACCUCCAAUGCAUCCCACCACAUGAUGAUGCCUGAAGAGCCUUGGUUUUUUG [G47C C49U]	-2.12
GACCUAUCUGCCCUCAGAGGUCGAGAACAUCUUCGGAUGCAGAGGAGGCAGGCUUCGGUGGCGCGAUAGCGCCAACGUCCUCAACCUCCAAUGCAUCCCACCACAUGAUGAUGCCUGAAGCGUCUUGGUUUUUUG [A5U C20G A121C C123U]	-3.97
